Reference: patent US20100322946A1

Key:
human VEGF165 (human) = human VEGF165 (human) (UniProt P15692); test: competition ELISA, hVEGF165 in solution varied
[1] = target: human VEGF (form not stated) (human) (UniProt P15692); test: biotin-hVEGF with IgG, free VEGF captured on Avastin

Sequence of human VEGF165 (human) (P15692 other isoform, or with tags, fused parts or gaps): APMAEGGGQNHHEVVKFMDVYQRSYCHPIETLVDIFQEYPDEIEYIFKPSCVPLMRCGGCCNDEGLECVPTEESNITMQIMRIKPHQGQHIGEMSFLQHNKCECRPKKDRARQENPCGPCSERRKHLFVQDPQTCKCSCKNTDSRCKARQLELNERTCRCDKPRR

IC50 (read off the curve) (human VEGF165 (human)): 3 nM
IC50 (read off the curve) [1]: 3 nM
Substance: G6 hIgG (antibody)
